{"source": "patent US10617749B1", "about": "“Composition of matter and methods for alteration of dendritic cell metabolism to augment cancer vaccine efficacy” (Duke University, priority 2016, dated 2020)", "molecules": {"B1": {"name": "Wnt5a: Wnt ligand used to treat DCs (200 ng/mL) (protein, UniProt P41221 62-380, looked up)", "Protein Wnt-5a": "IIGAQPLCSQLAGLSQGQKKLCHLYQDHMQYIGEGAKTGIKECQYQFRHRRWNCSTVDNTSVFGRVMQIGSRETAFTYAVSAAGVVNAMSRACREGELSTCGCSRAARPKDLPRDWLWGGCGDNIDYGYRFAKEFVDARERERIHAKGSYESARILMNLHNNEAGRRTVYNLADVACKCHGVSGSCSLKTCWLQLADFRKVGDALKEKYDSAAAMRLNSRGKLVQVNSRFNSPTTQDLVYIDPSPDYCVRNESTGSLGTQGRLCNKTSEGMDGCELMCCGRGYDQFKTVQTERCHCKFHWCCYVKCKKCTEIVDQFVCK"}}, "key": {"BMDCs": {"system": "BMDCs", "test": "Immunoblot of p-AMPK(T172) and p-AKT(T308) in BMDCs", "assay_type": "cell-based, murine", "settings": "Wnt5a 200 ng/mL", "text": "All data representative of 3 independent experiments.\n(§1) Primary antibodies including CPT1A (Cell signaling), PPAR-γ (Santa Cruz Biotechnology), β-catenin, β-actin (Millipore), p-AMPK(T172)/AMPK (Cell signaling), p-AKT(T308)/Akt (Cell Signaling) were used at 1:1000. Secondary antibodies including goat anti-rabbit IgG-HRP (Millipore) and goat anti-mouse IgG-HRP (Millipore) were used at 1:5000. Cells were lysed in Laemmli sample buffer after treatment and subjected to SDS-polyacrylamide gel electrophoresis and immunoblot analysis. For immunoprecipitation, cells were lysed in radio immunoprecipitation assay (RIPA) buffer [10 mM sodium phosphate (pH 8.0), 150 mM NaCl, 1% Triton X-100, 1% sodium deoxycholate, and 0.1% SDS in the presence of 1 mM DTT, 1 mM phenylmethylsulfonylfluoride, and a protease inhibitor cocktail (Sigma)], precleared with protein A beads, and then incubated with 1 μg of antibody against β-catenin or isotype control IgG with protein A-agarose beads on a rotator overnight at 4° C. After 3 washes with RIPA buffer, immunoprecipitated complexes were eluted in sample buffer by boiling and subjected to immunoblot analysis. Immunoblots were visualized by chemiluminescence substrate (ThermoFisher) and imaged by a ChemiDoc XRSplus system (BioRad)."}, "[1]": {"system": "bone marrow-derived DCs (BMDCs)", "test": "Extracellular lactate assay", "assay_type": "cell-based, murine", "settings": "BMDC culture media 0-48 hours", "experimental": "L-Lactate levels were measured by lactate dehydrogenase conversion of L-lactate+NAD^+ to pyruvate+NADH following treatment with […] (Pesce et al., 1975). Lactate standards and samples were read at NADH specific absorbance 340 nm."}, "[2]": {"system": "bone marrow-derived DCs (BMDCs)", "test": "DC glycolysis, extracellular acidification rate (ECAR)", "assay_type": "cell-based, murine", "settings": "with or without LPS", "experimental": "(§2) DC energy metabolism was measured using the XF^e24 extracellular flux analyzer (Seahorse Bioscience), with the glycolysis stress test kit and the mitochondrial stress test kit as previously described (Everts et al., 2014; Zhao and Klimecki, 2015).\n(§3) Murine bone marrow-derived DCs (BMDCs) were harvested and differentiated as previously described and purified using CD11c microbeads (Miltenyi Biotec) according to manufacturer's protocol. DC purity was monitored by flow cytometry and consistently found to be >95% CD11c+F4/80-. BRAFV600EPTEN−/−-Wnt5aKD and BRAFV600EPTEN−/−-NTC cell lines were generated and cultured as previously described. DC2.4, a murine dendritic cell line was kindly provided by Dr. Kenneth L. Rock (University of Massachusetts Medical School), and cultured as previously described. DC2.4β-cateninKD, DC2.4-CPT1AKD, and DC2.4-NTC stable cell lines were generated using a β-catenin-targeted, CPT1A-targeted, or control shRNA-expressing lentivirus followed by puromycin selection. DCs were treated with Wnt3a (100 ng/mL), Wnt5a (200 ng/mL), LPS (1 μg/mL), 1-MT, 2DG (1 mM), or ETO (100 µM) vs vehicle control either for 24 or 48 hrs prior to their use in both in vitro and in vivo experiments."}, "Dendritic Cells": {"system": "Dendritic Cells", "test": "BODIPY and fatty acid uptake assay", "assay_type": "cell-based, murine", "settings": "TF2-C12 uptake, BODIPY", "experimental": "Dendritic Cells were stained in 0.5 μg/ml BODIPY 493/503 in PBS for 15 min to determine neutral lipid content (Herber et al., 2010). Fatty acid uptake measurement in DCs were performed using a dodecanoic acid fluorescent TF2-C12 fatty acid (Sigma) according to the manufacturer's protocol."}, "[3]": {"system": "human monocyte-derived DCs", "test": "OCR analysis of human monocyte-derived DCs", "assay_type": "cell-based", "settings": "human monocyte-derived DCs, Wnt5a 48 hours", "experimental": "Human DCs were differentiated from harvested peripheral blood mononuclear cells and pre-treated with Wnt5a 48 hours prior to OCR analysis. Short-term incubation with ETO was performed prior to analysis.\nas §2\n(§4) Human Monocyte-derived Dendritic Cells were generated as previously described."}, "murine DCs": {"system": "murine DCs", "test": "qrt-PCR / ELISA gene and cytokine expression in murine DCs", "assay_type": "cell-based", "experimental": "Total RNA was isolated by RNeasy Plus Mini Kit(Qiagen). RNA(500 ng) was used in cDNA Synthesis (iScript, BioRad). Quantification of mRNA for genes involved in PPARγ signaling was performed using Mouse PrimePCR PPAR Array according to the manufacturer's protocol (BioRad). Real-time PCR was performed using an ABI7500 Real-Time PCR system (Life Technologies). Data analysis utilized the PrimePCR Analysis Software (BioRad). Conventional qPCR was performed using validated primers (Table 1) and SsoAdvanced Universal SYBR Green Super mix (BioRad) or Taqman probes (Applied Biosystems) for heme synthesis enzymes.\nMurine IL-6 (eBioscience) and IL-12p40 (Becton Dickinson) ELISAs were performed according to manufacture's protocol."}, "β-catenin-PPAR-γ complex": {"system": "β-catenin-PPAR-γ complex", "test": "β-catenin co-immunoprecipitation in primary DCs", "assay_type": "cell-based, murine", "text": "as §1"}, "DC intracellular PpIX": {"system": "DC intracellular PpIX", "test": "PpIX flow cytometry analysis", "assay_type": "cell-based, mouse", "settings": "48 hours treatment, then 1 mM δ-ALA 4 hrs", "experimental": "Dendritic cells were terminally incubated in the presence of 1 mM δ-aminolevulinic acid (ALA) for 4 hrs. Intracellular PpIX was analyzed by flow cytometry as previously described (Hryhorenko et al., 1998)."}, "[4]": {"system": "bone marrow-derived DCs (BMDCs)", "test": "DC oxygen consumption rate (OCR) / OXPHOS, extracellular flux analysis", "assay_type": "cell-based, murine", "settings": "BMDCs treated with the agent alone vs untreated", "experimental": "as §2, §3"}, "[5]": {"system": "human monocyte-derived DC", "test": "PPARγ and CPT1A Western blot in human monocyte-derived DCs", "assay_type": "cell-based", "text": "as §1, §4"}, "DCs": {"system": "DCs", "test": "DC ATP generation", "assay_type": "cell-based", "settings": "data not shown"}, "OT-1 CD8+ T cells": {"system": "OT-1 CD8+ T cells", "test": "T cell proliferation assay", "assay_type": "cell-based, mouse", "settings": "SIINFEKL-loaded BMDCs co-incubated with OT-1 splenocytes", "experimental": "Splenocytes of OT-1 mice (H-2^b) were isolated and stained with CellTrace Violet (ThermoFisher). Preconditioned DCs were loaded with ovalbumin peptide SIINFEKL, and co-cultured at a DC:splenocyte ratio of 40,000:120,000 cells for 72 hrs. CD8+ T cell proliferation was measured by the dilution of Cell Trace Violet dye by flow cytometry."}, "DC IDO": {"system": "DC IDO", "test": "IDO enzymatic assay (kynurenine HPLC)", "assay_type": "cell-based, mouse", "settings": "purified DC cultures, Wnt5a or Wnt5a+ETO", "experimental": "DC IDO enzyme activity was measured by the conversion of L-tryptophan to L-kynurenine in conditioned media by HPLC (Pallotta et al., 2011). Intracellular hemin levels were measured using a colorimetric assay kit (BioVision)."}}, "note": "Entries after “also recorded” stand apart in the source; their conditions may differ.", "data": [{"molecule": "B1", "values": [{"measurement": "AMPK activation (Thr-172 phospho-AMPK)", "setting": "BMDCs; 24 and 48 hrs", "value": "suppress AMPK activation"}, {"measurement": "DC Akt Thr-308 phosphorylation", "setting": "BMDCs; 48 hrs", "value": "no significant impact"}, {"measurement": "lactate production", "setting": "[1]", "value": "suppress lactate production"}, {"measurement": "DC glycolysis (ECAR)", "setting": "[2]", "value": "inhibits DC glycolysis; also recorded: inhibit LPS-mediated DC glycolysis; also recorded: eliminates the glycolytic reserve of DCs while also significantly suppressing the lipopolysaccharide (LPS)-induced glycolytic surge; also recorded: suppresses LPS-induced DC glycolysis"}, {"measurement": "DC fatty acid uptake and lipid stores", "setting": "Dendritic Cells", "value": "enhance DC fatty acid uptake and lipid stores"}, {"measurement": "OCR", "setting": "[3]", "value": "induces OCR in human monocyte-derived DCs"}, {"measurement": "IL-6 and IL-12 expression in primary DCs", "setting": "murine DCs; BMDCs, qrt-PCR", "value": "suppresses IL-6 and IL-12 expression in primary DCs"}, {"measurement": "expression of ALAS1 and further PpIX/heme synthesis enzymes", "setting": "murine DCs; DCs, qrt-PCR", "value": "upregulate the expression of ALAS1 as well as several additional enzymes involved in PpIX synthesis"}, {"measurement": "PPAR-γ and CPT1A expression", "setting": "murine DCs; murine primary DCs", "value": "directly induce CPT1a expression in a PPARγ-dependent manner; also recorded: induces the upregulation of PPAR-γ and CPT1A"}, {"measurement": "expression of key glycolytic enzymes (phosphofructokinase, hexokinase, pyruvate kinase)", "setting": "murine DCs; primary DCs, qrt-PCR", "value": "suppresses the expression of key glycolytic enzymes; also recorded: suppress the expression of the key glycolytic enzymes"}, {"measurement": "PPAR-γ binding to β-catenin", "setting": "β-catenin-PPAR-γ complex", "value": "PPAR-γ to bind to β-catenin upon Wnt5a stimulation"}, {"measurement": "DC levels of PpIX", "setting": "DC intracellular PpIX", "value": "enhances DC levels of the PpIX prosthetic group in a manner that depends on the induction of FAO"}, {"measurement": "DC OXPHOS (OCR)", "setting": "[4]", "value": "strongly promoting DC OXPHOS; also recorded: promotes DC oxidative phosphorylation (OXPHOS)"}, {"measurement": "PPAR-γ and CPT1A expression", "setting": "[5]", "value": "induces the upregulation of PPAR-γ and CPT1A"}, {"measurement": "DC ATP generation", "setting": "DCs", "value": "no net effect on DC ATP generation"}, {"measurement": "DC-mediated antigen-specific CD8+ T cell proliferation", "setting": "OT-1 CD8+ T cells", "value": "suppresses LPS-induced DC-mediated antigen-specific T cell proliferation"}, {"measurement": "DC IDO enzymatic activity (kynurenine)", "setting": "DC IDO", "value": "capable of promoting DC IDO enzymatic activity"}]}]}
